Assay results: article PMC8497518, “ssDNA recombineering boosts in vivo evolution of nanobodies displayed on bacterial surfaces” (Communications Biology, 2021)

How the values were obtained:
[1] = target: TirM^EPEC, extracellular domain of the translocated intimin receptor (Tir) of enteropathogenic E. coli (enteropathogenic E. coli (EPEC)); experiment: SEC; purified TirM^EPEC in solution, size exclusion chromatography
[2] = target: T1, TirM^EHEC, extracellular domain of the translocated intimin receptor (Tir) of enterohaemorrhagic E. coli (Escherichia coli EHEC; strain not …, UniProt Q7DB77, biotin (NHS-biotin, biotin:protein 20:1) for flow cytometry and MACS); experiment: flow cytometry on cells; E. coli displaying the intimin-Nb fusion (multivalent) incubated 90 min at 4 °C in PBS with biotinylated antigen (0-250 nM TirM^EPEC or 0-50 nM TirM^EHEC), stained with streptavidin-allophycocyanin; median fluorescence fitted to one-site specific binding; apparent KD; conditions: one partner purified
T1 construct: Translocated intimin receptor Tir of enterohaemorrhagic E. coli (EHEC), extracellular TirM domain; also called EHEC TirM; former antigen

[3] = target: T2, TirM^EPEC, extracellular domain of the translocated intimin receptor (Tir) of enteropathogenic E. coli (Escherichia coli EPEC; strain not …, UniProt B7UM99, biotin (NHS-biotin, biotin:protein 20:1) for flow cytometry and MACS); experiment: ELISA; Maxisorp plates coated with His-tagged TirM at 10 ug/mL in PBS; purified monovalent Nb in 3% skimmed milk in PBS, 0-100 nM (TD4) or 0-400 nM (mutants), 90 min at 23 °C; detected with anti-E-tag; one-site specific binding fit; apparent KD; conditions: both partners purified
T2 construct: Translocated intimin receptor Tir of enteropathogenic E. coli (EPEC), extracellular TirM domain; also called EPEC TirM; new antigen
Target sequence in this assay (B7UM99 255-362): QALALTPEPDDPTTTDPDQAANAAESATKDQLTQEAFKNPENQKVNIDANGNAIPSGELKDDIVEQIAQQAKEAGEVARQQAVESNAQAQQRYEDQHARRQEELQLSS

[4] = target: T1, TirM^EHEC, extracellular domain of the …; experiment: as above; conditions: both partners purified
Target sequence in this assay (Q7DB77 252-362): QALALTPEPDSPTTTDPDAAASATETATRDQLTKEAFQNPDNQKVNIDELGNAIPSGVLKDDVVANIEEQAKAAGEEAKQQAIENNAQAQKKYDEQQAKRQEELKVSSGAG

[5] = target: T2, TirM^EPEC, extracellular domain of the …; experiment: flow cytometry on cells; E. coli displaying the intimin-Nb fusion (multivalent) incubated 90 min at 4 °C in PBS with biotinylated antigen (0-250 nM TirM^EPEC or 0-50 nM TirM^EHEC), stained with streptavidin-allophycocyanin; median fluorescence fitted to one-site specific binding; apparent KD; conditions: one partner purified
[6] = target: T2, TirM^EPEC, extracellular domain of the …; experiment: ELISA; Maxisorp plates coated with His-tagged TirM at 10 ug/mL in PBS; purified monovalent Nb in 3% skimmed milk in PBS, 0-100 nM (TD4) or 0-400 nM (mutants), 90 min at 23 °C; detected with anti-E-tag; one-site specific binding fit; apparent KD; conditions: both partners purified; remark: listed apart in the source
Target sequence in this assay (B7UM99 255-362): as the sequence (B7UM99 255-362) above

| Molecule | Kd [2] | Kd [3] | Kd [4] | Kd [5] | further results |
| --- | --- | --- | --- | --- | --- |
| TirM^EPEC, extracellular domain of the translocated intimin receptor (Tir) of enteropathogenic E. coli (domain or fragment) |  |  |  |  | stoichiometry N [1]: 2 |
| Nb TD4 displayed on E. coli as a fusion to the outer membrane anchoring domain of intimin (VHH, VHH TD4; multivalent on the bacterial surface; also called parental Nb; non-evolved TD4; not shown: intimin outer membrane anchoring domain, N-terminal, kept) VHH: QVQLVDAGGGSVQAGGSLTLSCVASGAAYSTNLLGWFRQAPGKEREGVASIYRGNSATNYADSVKGRFTISQDKTKYTIYLQMNSLKPEDSAMYYCAHGTAPYWHTPIPTLSEDKYFYWGQGTQVTVSS | 0.41 nM |  |  |  |  |
| Nb TD4^D116G, secreted His6-tagged VHH-HlyA fusion (monovalent, purified) (VHH, as the VHH of m7 with D116G; also called Nb D116G) VHH: QVQLVDAGGGSVQAGGSLTLSCVASGAAYSTNLLGWFRQAPGKEREGVASIYRGNSATNYADSVKGRFTISQDKTKYTIYLQMNSLKPEDSAMYYCAHGTAPYWHTPIPTLSEGKYFYWGQGTQVTVSS |  | 397 nM | 137 nM |  |  |
| Nb TD4^T108R displayed on E. coli as a fusion to the outer membrane anchoring domain of intimin (VHH, as the VHH of m3 with T108R (CDR3); Evolved from TD4 by DIvERGE mutagenesis and MACS selection; also called Nb T108R; not shown: intimin outer membrane anchoring domain, N-terminal, kept) VHH: QVQLVDAGGGSVQAGGSLTLSCVASGAAYSTNLLGWFRQAPGKEREGVASIYRGNSATNYADSVKGRFTISQDKTKYTIYLQMNSLKPEDSAMYYCAHGTAPYWHRPIPTLSEDKYFYWGQGTQVTVSS | 0.36 nM |  |  | 27.6 nM |  |
| Nb TD4, secreted His6-tagged VHH-HlyA fusion (monovalent, purified) (VHH, VHH TD4, as the VHH of m3; No cleavage of the HlyA part or the His tag is described; the fusion was detected by anti-E-tag in ELISA; also called parental TD4; non-evolved TD4; source: E. coli HB2151 with pVDL9.3 (HlyBD) and a pEHLYA derivative, secreted, purified from culture medium (Talon resin)) VHH: QVQLVDAGGGSVQAGGSLTLSCVASGAAYSTNLLGWFRQAPGKEREGVASIYRGNSATNYADSVKGRFTISQDKTKYTIYLQMNSLKPEDSAMYYCAHGTAPYWHTPIPTLSEDKYFYWGQGTQVTVSS |  |  | 5.55 nM |  |  |
| Nb TD4^H107Y, secreted His6-tagged VHH-HlyA fusion (monovalent, purified) (VHH, as the VHH of m7 with H107Y; also called Nb H107Y) VHH: QVQLVDAGGGSVQAGGSLTLSCVASGAAYSTNLLGWFRQAPGKEREGVASIYRGNSATNYADSVKGRFTISQDKTKYTIYLQMNSLKPEDSAMYYCAHGTAPYWYTPIPTLSEDKYFYWGQGTQVTVSS |  | 20.1 nM | 47.7 nM |  | Kd [6]: 20.8 ± 2.31 nM |
| Nb TD4^D116G displayed on E. coli as a fusion to the outer membrane anchoring domain of intimin (VHH, as the VHH of m3 with D116G (CDR3); Evolved from TD4 by DIvERGE mutagenesis and MACS selection; also called Nb D116G; not shown: intimin outer membrane anchoring domain, N-terminal, kept) VHH: QVQLVDAGGGSVQAGGSLTLSCVASGAAYSTNLLGWFRQAPGKEREGVASIYRGNSATNYADSVKGRFTISQDKTKYTIYLQMNSLKPEDSAMYYCAHGTAPYWHTPIPTLSEGKYFYWGQGTQVTVSS | 0.58 nM |  |  | 17.9 nM |  |
| Nb TD4^H107Y displayed on E. coli as a fusion to the outer membrane anchoring domain of intimin (VHH, as the VHH of m3 with H107Y (CDR3); Evolved from TD4 by DIvERGE mutagenesis and MACS selection; also called Nb H107Y; not shown: intimin outer membrane anchoring domain, N-terminal, kept) VHH: QVQLVDAGGGSVQAGGSLTLSCVASGAAYSTNLLGWFRQAPGKEREGVASIYRGNSATNYADSVKGRFTISQDKTKYTIYLQMNSLKPEDSAMYYCAHGTAPYWYTPIPTLSEDKYFYWGQGTQVTVSS | 0.57 nM |  |  | 33.9 nM |  |
| Nb TD4^T108R, secreted His6-tagged VHH-HlyA fusion (monovalent, purified) (VHH, as the VHH of m7 with T108R; also called Nb T108R) VHH: QVQLVDAGGGSVQAGGSLTLSCVASGAAYSTNLLGWFRQAPGKEREGVASIYRGNSATNYADSVKGRFTISQDKTKYTIYLQMNSLKPEDSAMYYCAHGTAPYWHRPIPTLSEDKYFYWGQGTQVTVSS |  | 176 nM | 4.61 nM |  |  |
